In publication PMC9352680, “A comprehensive thermodynamic model for RNA binding by the Saccharomyces cerevisiae Pumilio protein PUF4”:
Residue numbers refer to the chain shown, from its start. In names and notes the source's numbering stands.

T1: PUF4 RNA-binding domain (Saccharomyces cerevisiae, UniProt P25339 537-888)
T1 sequence: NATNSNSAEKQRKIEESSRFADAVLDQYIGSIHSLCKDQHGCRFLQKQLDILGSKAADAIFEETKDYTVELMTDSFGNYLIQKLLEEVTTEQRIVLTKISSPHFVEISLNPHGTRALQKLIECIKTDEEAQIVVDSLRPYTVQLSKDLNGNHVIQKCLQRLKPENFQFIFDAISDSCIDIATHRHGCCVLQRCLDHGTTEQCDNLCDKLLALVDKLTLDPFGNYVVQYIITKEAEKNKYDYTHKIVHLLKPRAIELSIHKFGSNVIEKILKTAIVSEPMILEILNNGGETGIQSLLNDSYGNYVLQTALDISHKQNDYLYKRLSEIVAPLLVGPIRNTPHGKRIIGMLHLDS

B1: Id_ii_S2_P4E.3_K4.2_C4.2_[C-2G]_[T-1C]_H4.2_A4.1_F4.1_T4.2_[G10C]_[T11G] (ssRNA)
RNA: UUUGAUUAAUAUGAUAUCGUUCUUUCUGCUAUAUAUUACGUUCUUUCUCGAUAUCAUAUUAAUCUUU
B2: Id_ii_S2_P4E.3_K4.2_C4.2_[C-2A]_[T-1C]_H4.2_A4.1_F4.1_T4.2_[G10A]_[T11C] (ssRNA)
RNA: B1 RNA with G28A, C39A, G40C
B3: Id_ii_S2_P4E.3_K4.2_C4.2_[C-2A]_[T-1C]_H4.2_A4.1_F4.1_T4.2_[G10T] (ssRNA)
RNA: B1 RNA with G28A, C39U, G40U
B4: Id_ii_S2_P4E.3_K4.2_C4.2_[C-2T]_H4.2_A4.1_F4.1_T4.2_[G10T]_[T11A] (ssRNA)
RNA: B1 RNA with G28U, C29U, C39U, G40A
B5: Id_ii_S2_P4E.3_K4.2_C4.2_[C-2T]_H4.2_A4.1_F4.1_T4.2_[T11C] (ssRNA)
RNA: B1 RNA with G28U, C29U, C39G, G40C
B6: Id_ii_S2_P4E.3_K4.2_C4.2_[C-2T]_H4.2_A4.1_F4.1_T4.2_[G10A] (ssRNA)
RNA: B1 RNA with G28U, C29U, C39A, G40U
B7: Id_ii_S2_P4E.3_K4.2_C4.2_[C-2T]_[T-1C]_H4.2_A4.1_F4.1_T4.2_[G10A]_[T11A] (ssRNA)
RNA: B1 RNA with G28U, C39A, G40A
B8: Id_ii_S2_P4E.3_K4.2_C4.2_[C-2T]_[T-1A]_H4.2_A4.1_F4.1_T4.2_[G10A] (ssRNA)
RNA: B1 RNA with G28U, C29A, C39A, G40U
B9: Id_ii_S2_P4E.3_K4.2_C4.2_[C-2T]_[T-1G]_H4.2_A4.1_F4.1_T4.2 (ssRNA)
RNA: B1 RNA with G28U, C29G, C39G, G40U
B10: Id_ii_S2_P4E.3_K4.2_C4.2_[C-2A]_[T-1C]_H4.2_A4.1_F4.1_T4.2_[G10T]_[T11C] (ssRNA)
RNA: B1 RNA with G28A, C39U, G40C
B11: Id_ii_S2_P4E.3_K4.2_C4.2_[C-2T]_H4.2_A4.1_F4.1_T4.2_[G10T]_[T11C] (ssRNA)
RNA: B1 RNA with G28U, C29U, C39U, G40C
B12: Id_ii_S2_P4E.3_K4.2_C4.2_[C-2T]_H4.2_A4.1_F4.1_T4.2_[G10C]_[T11C] (ssRNA)
RNA: B1 RNA with G28U, C29U, G40C
B13: Id_ii_S2_P4E.3_K4.2_C4.2_[C-2T]_[T-1G]_H4.2_A4.1_F4.1_T4.2_[G10A]_[T11C] (ssRNA)
RNA: B1 RNA with G28U, C29G, C39A, G40C
B14: Id_ii_S2_P4E.3_K4.2_C4.2_[C-2T]_[T-1A]_H4.2_A4.1_F4.1_T4.2_[G10C]_[T11A] (ssRNA)
RNA: B1 RNA with G28U, C29A, G40A
B15: Id_ii_S2_P4E.3_K4.2_C4.2_[C-2A]_[T-1G]_H4.2_A4.1_F4.1_T4.2_[G10A]_[T11A] (ssRNA)
RNA: B1 RNA with G28A, C29G, C39A, G40A
B16: Id_ii_S2_P4E.3_K4.2_C4.2_[C-2G]_[T-1C]_H4.2_A4.1_F4.1_T4.2_[G10T]_[T11G] (ssRNA)
RNA: B1 RNA with C39U
B17: Id_ii_S2_P4E.3_K4.2_C4.2_[C-2A]_[T-1C]_H4.2_A4.1_F4.1_T4.2_[G10C] (ssRNA)
RNA: B1 RNA with G28A, G40U
B18: Id_ii_S2_P4E.3_K4.2_C4.2_[C-2T]_[T-1C]_H4.2_A4.1_F4.1_T4.2_[G10C]_[T11G] (ssRNA)
RNA: B1 RNA with G28U
B19: Id_ii_S2_P4E.3_K4.2_C4.2_[C-2T]_[T-1C]_H4.2_A4.1_F4.1_T4.2_[G10C] (ssRNA)
RNA: B1 RNA with G28U, G40U
B20: Id_ii_S2_P4E.3_K4.2_C4.2_[C-2G]_[T-1C]_H4.2_A4.1_F4.1_T4.2_[G10C]_[T11C] (ssRNA)
RNA: B1 RNA with G40C
B21: Id_ii_S2_P4E.3_K4.2_C4.2_[C-2G]_[T-1C]_H4.2_A4.1_F4.1_T4.2_[G10A]_[T11C] (ssRNA)
RNA: B1 RNA with C39A, G40C
B22: Id_ii_S2_P4E.3_K4.2_C4.2_[C-2T]_H4.2_A4.1_F4.1_T4.2_[G10A]_[T11A] (ssRNA)
RNA: B1 RNA with G28U, C29U, C39A, G40A
B23: Id_ii_S2_P4E.3_K4.2_C4.2_[C-2G]_H4.2_A4.1_F4.1_T4.2_[G10T]_[T11G] (ssRNA)
RNA: B1 RNA with C29U, C39U
B24: Id_ii_S2_P4E.3_K4.2_C4.2_[C-2T]_[T-1G]_H4.2_A4.1_F4.1_T4.2_[G10A]_[T11A] (ssRNA)
RNA: B1 RNA with G28U, C29G, C39A, G40A
B25: Id_ii_S2_P4E.3_K4.2_C4.2_[C-2T]_[T-1A]_H4.2_A4.1_F4.1_T4.2_[G10T] (ssRNA)
RNA: B1 RNA with G28U, C29A, C39U, G40U
B26: Id_ii_S2_P4E.3_K4.2_C4.2_[C-2G]_H4.2_A4.1_F4.1_T4.2_[G10A]_[T11A] (ssRNA)
RNA: B1 RNA with C29U, C39A, G40A

Molecular target: T1, PUF4 RNA-binding domain
Test: Mg; RNA-MaP; 20 mM Na-HEPES pH 7.4, 30 mM KOAc, 0.75 mM MgCl2, 0.1% Tween-20, 5% glycerol, 0.1 mg/mL BSA, 2 mM DTT; 25 C; 0.0125-409.6 nM protein
Settings: tags: N-His6-TEV cleaved; C-SNAP kept, Cy3B-labelled; label: tethered on chip by stalled RNA polymerase

Binder	Kd [nM]
UCUCUUUAUAUUAUUAUCUCUU (ssRNA) [Ia_S1_P5E.1_K5.1_C5.1_H5.1_[G2A]_A5.1_F5.1_T5.1]	367
UCUCUUUAUAUUAUUCUCUCUU (ssRNA) [Ib_S1_P5E.1_K5.1_C5.1_H5.1_[G2A]_A5.1_F5.1_[A10C]_T5.1]	462
UCUCUUUGUGUUAUUGUCUCUU (ssRNA) [Ib_S1_P5E.1_K5.1_C5.1_H5.1_[A4G]_A5.1_F5.1_[A10G]_T5.1]	382
B1	37.1
B2	13.3
B3	7.44
B4	23.8
B5	5.53
B6	17.3
B7	18.5
B8	17
B9	1.86
B10	10.6
B11	7.36
B12	8.62
B13	4.44
B14	17.5
B15	135
B16	29.1
B17	9.33
B18	8.91
B19	6.91
B20	23.6
B21	57.7
B22	141
B23	11.2
B24	2.31
B25	14.9
B26	13.7
